Tested on: Bacillus subtilis
Test: cleaved RNA product abundance (RNA/gDNA barcode ratio) relative to median wild-type variant (ratio to wild type); higher = more accumulation of the downstream cleavage product
Procedure, shortened: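 Oligos with a 9% error rate were used to build barcoded, mutagenized RNase Y cleavage-site windows within truncated aprE or tetM reporter mRNAs, which were integrated into the B. subtilis chromosome. Cultures were grown in LB at 37°C between OD600 0.0003 and 0.3. Cleaved RNA was gel-selected, reverse transcribed and barcode-sequenced, as were genomic DNA barcodes, and UMIs were collapsed. Cleaved product abundance is the scaled RNA:gDNA barcode ratio, with the median construct carrying the unmutated site as reference.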

[1] = experiment (reporter, strain, medium): exp 8a: truncated aprE reporter, strain BJT201 with 2% xylose (RNase J1 expressed), cleavage site: glnRA (positions -5 to +31 mutated)
[2] = experiment (reporter, strain, medium): exp 2b: truncated aprE reporter, strain BJT200, cleavage site: cggR-gapA (positions -7 to +36 mutated)
[3] = experiment (reporter, strain, medium): exp 4a: truncated aprE reporter, strain BJT201 with 2% xylose (RNase J1 expressed), cleavage site: cggR-gapA (positions -7 to +36 mutated)
[4] = experiment (reporter, strain, medium): exp 6: tetM reporter, strain 168, cleavage site: cggR-gapA (positions -7 to +36 mutated)

Row | Sequence | cleaved RNA product abundance [1] | cleaved RNA product abundance [3] | other results
1 | CGACATGTCCCGCTTCTTTCATTAATCCGTAATCAACTGTTTTGCTATATACATTTACCTTTTAAGAGGAGGAAT | 0.265 |  | 
2 | ACAGACGAAGGAGCCGCAAAGAAGTTATTAAGGGATGAATAATTCCTCAATATAAATATCTCTCACTTATTTAAA |  | 0.616 | cleaved RNA product abundance [2]: 0.506; cleaved RNA product abundance [4]: 0.494
3 | CGACATGTCCCGCTTCTTTCATTACTCCGTTAGCAACAGTTATGCTATATACATTTACCTTTTAAGAGGAGGAAT | 0.735 |  | 
4 | ACAGACGAAGGAGCCGCTAAGAAGTTATTAAGGGATGCATAATCCCTCAATATAAATATCTCTCACTTATTTAAA |  | 0.814 | cleaved RNA product abundance [2]: 0.968
5 | ACAGACGAAGGAGCCGCAAAGAAGTTATTAAAGGATGAATAATCCCACAATATAAATATCTCTCACTTATTTAAA |  | 0.173 | cleaved RNA product abundance [2]: 0.113
6 | ACAGACGAAGGAGCCGCAACGAAGTTATTAAGGGATGAATACTCCCTCAATATAAATATCTCTCACTTATTTAAA |  | 0.55 | 
7 | CGACATGTCCCGCTTCTTTCATTAATCTGTTAGCAACTGTTTTGCTATATACATTCACCTTTTAAGAGGAGGAAT | 0.488 |  | 
8 | ACAGACGAAGGAGCCGCAAAGAAGTTATTGAGGGCTGAATAATCCCTCAATATAAATATCTCTCACTTATTTAAA |  | 0.167 | 
9 | CGACATGTCCCGCTTCTTTCATTAATCCGTTAGGAACTGTTTTGCTATATACATTTACCTTTTAAGAGGAGGAAT | 0.331 |  | 
10 | ACAGACGAAGGAGCCGCAAAGAAGTTATTAAGGGATGAATAATCCCTATATATAAATATCTCTCACTTATTTAAA |  | 0.37 | 
11 | ACAGACGAAGGAGCCGCAAATAAGTTATTAAGGGATGAATAAACCCTCAATATAAATATCTCTCACTTATTTAAA |  | 0.39 | 
12 | CGACATGTCCCGCTTCTTTCATTAATCCGTTAGCAACTTTTTTGCAATATACATTTACCTTTTAAGAGGAGGAAT | 0.494 |  | 
13 | CGACATGTCCCGCTTCTTTCATTAATCCGTTAGCAACTGTTCTGCTATATACATTTACCTTTTAAGAGGAGGAAT | 0.446 |  | 
14 | ACAGACGAAGGAGCCGCAAAGAAGTTATAAAGGGATGAATAATCCCTCAATATAAATTTCTCTCACTTATTTAAA |  | 0.387 | 
15 | CGACATGTCCCGCTTCTTTCATTAATCCGTTAGCAACTGTTGTCCTATATACATTTACCTTTTAAGAGGAGGAAT | 0.343 |  | 
16 | CGACATGTCCCGCTTCTTTCATTAATCAGTTAGCAACTGTTTTGCTATATACATTTACATTTTAAGAGGAGGAAT | 0.595 |  | 
17 | CGACATGTCCCGCTTCTTTCATTAATCCGTTAGAAACTGTTTTGCTATATACAGTTACCTTTTAAGAGGAGGAAT | 0.361 |  | 
18 | ACAGACGAAGGAGCCGCAAAGAAGTTATAAAGGGATGAATAATCCCTCAATATAAAAATCTCTCACTTATTTAAA |  |  | cleaved RNA product abundance [2]: 0.338
19 | CGACATGTCCCGCTTCTTTCATTAATCCGTTAGCAACTGATTTTCTATATACATTTACCTTTTAAGAGGAGGAAT | 0.689 |  | 
20 | ACAGACGAAGGAGCCGCCAAGAAGTTATTAAGGTATGAATAATCCCTCAATATAAATATCTCTCACTTATTTAAA |  | 0.103 | 
21 | CGACATGTCCCGCTTCTTTCATTAATCCGGTAGCAACTGTTTTGCAATATACATTTACCTTTTAAGAGGAGGAAT | 0.533 |  | 
22 | ACAGACGAAGGAGCCGCAAAGAAGTTATTAAGGGATGTATAATCCCTCAATATATATATCTCTCACTTATTTAAA |  |  | cleaved RNA product abundance [2]: 0.631
23 | CGACATGTCCCGCTTCTTTCATTACTCCGTTAGCAACTATTTTGCTATATACATTTACCTTTTAAGAGGAGGAAT | 1.31 |  | 
24 | CGACATGTCCCGCTTCTTTCATTAATCCGTAAGCAACTGTTTTTCTATATACATTTACCTTTTAAGAGGAGGAAT | 0.508 |  | 

Row | Sequence | cleaved RNA product abundance [1] | cleaved RNA product abundance [3] | other results
25 | CGACATGTCCCGCTTCTTTCATTAATCCGTTAGCAACTATTTTGCTATATACAATTACCTTTTAAGAGGAGGAAT | 1.98 |  | 
26 | CGACATGTCCCGCTTCTTTCATTAATCCGTTAGGAAATGTTTTGCTATATACATTTACCTTTTAAGAGGAGGAAT | 0.361 |  | 
27 | ACAGACGAAGGAGCCGCAAAGAAGTTACTAAGGGATGAATAATCGCTCAATATAAATATCTCTCACTTATTTAAA |  | 0.0864 | cleaved RNA product abundance [2]: 0.0765
28 | ACAGACGAAGGAGCCGCAAATAAGTTATTAAGGGATGAATAATCCCTCTATATAAATATCTCTCACTTATTTAAA |  | 0.439 | cleaved RNA product abundance [2]: 0.34
29 | CGACATGTCCCGCTTCTTTCATTACTCCGTTATCAACTGTTTTGCTATATACATTTACCTTTTAAGAGGAGGAAT | 0.227 |  | 
30 | ACAGACGAAGGAGCCGCAAAGAAGTTATTAAGGGATAAATAATCCCTCTATATAAATATCTCTCACTTATTTAAA |  | 0.326 | cleaved RNA product abundance [2]: 0.396
31 | CGACATGTCCCGCTTCTTTCATTAATCCGTTACCAACTGTTTTGCCATATACATTTACCTTTTAAGAGGAGGAAT | 0.145 |  | 
32 | ACAGACGAAGGAGCCGCAAAGAAGTTATTAAGGGATGAATAATCCCTCAATATAAATATCTCTCACTTATTTAAA |  |  | cleaved RNA product abundance [4]: 1.06
33 | CGACATGTCCCGCTTCTTTCATTATTCCGTTACCAAATGTTTTGCTATATACATTTACCTTTTAAGAGGAGGAAT | 0.265 |  | 
34 | ACAGACGAAGGAGCCGCATAGAAGTTTTTAAGGGATGAATAATCCCTCAATATAAATATCTCTCACTTATTTAAA |  | 0.561 | 
35 | CGACATGTCCCGCTTCTTTCATTAATCCGTAAGGAACTGTTTTGCTATATACATTTACCTTTTAAGAGGAGGAAT | 0.32 |  | 
36 | ACAGACGAAGGAGCCGCAAAGAATTTATTAAGGGATGTATAATCCCTCAATATAAATATCTCTCACTTATTTAAA |  | 0.683 | 
37 | ACAGACGAAGGAGCCGCAAAGAAGTTATTAATGGATAAATAATCCCTCAATATAAATATCTCTCACTTATTTAAA |  | 0.116 | cleaved RNA product abundance [2]: 0.102
38 | CGACATGTCCCGCTTCTTTCATTAATCCGTTAACAACTGTTTTGCTATATACATTTACCATTTAAGAGGAGGAAT | 0.176 |  | 
39 | ACAGACGAAGGAGCCGCACAGAAGTTATTAAGGGAAGAATAATCCCTCAATATAAATATCTCTCACTTATTTAAA |  | 0.573 | cleaved RNA product abundance [2]: 0.452
40 | CGACATGTCCCGCTTCTTTCATTAATCCGTTAGCAACTGTTTTGCTATATGCATTTAACTTTTAAGAGGAGGAAT | 0.452 |  | 
41 | ACAGACGAAGGAGCCGCAAAGAAGTTATTAAGGGATGAATAATCTTTCAATATAAATATCTCTCACTTATTTAAA |  | 0.122 | 
42 | ACAGACGAAGGAGCCGCAAGGAAGTTATTAAGGGATGAATAATTCCTCAATATAAATATCTCTCACTTATTTAAA |  | 0.793 | 
43 | ACAGACGAAGGAGCCGCAAAGAAGTTTTTAAGGGAAGAATAATCCCTCAATATAAATATCTCTCACTTATTTAAA |  | 0.149 | cleaved RNA product abundance [2]: 0.128
44 | CGACATGTCCCGCTTCTTTCATTAATCCGTTACCAACTGATTTGCTATATACATTTACCTTTTAAGAGGAGGAAT | 0.205 |  | 
45 | ACAGACGAAGGAGCCGCAAAGGAGTTATTAAGGGATGAAAAATCCCTCAATATAAATATCTCTCACTTATTTAAA |  | 0.576 | 
46 | ACAGACGAAGGAGCCGCAAAAAAGTTATTAAGGGATGAATAATCCCTCAATATAAATAACTCTCACTTATTTAAA |  | 1.13 | 
47 | CGACATGTCCCGCTTCTTTCATTATTCCGTTAGCAAGTGTTTTGCTATATACATTTACCTTTTAAGAGGAGGAAT | 1.46 |  | 
